In PMC3731144 (Proteins, 2012):

Legend:
[1] = target: gp120YU2 D474A (HIV-1 strain YU2); experiment: SPR
[2] = target: gp120YU2 E102A (HIV-1 strain YU2); experiment: SPR
[3] = target: gp120YU2 K97A (HIV-1 strain YU2); experiment: SPR
[4] = target: gp120YU2 T257A (HIV-1 strain YU2); experiment: SPR
CCR5-utilizing virus = conditions: ref [4]; cited from earlier work

Substance: Hexahis-tagged 4-domain soluble CD4 (receptor)
- Kd [1]: 5 nM
- RU bound at the end of association (500 nM CD4) [1]: 47 RU
- Kd [2]: 3 nM
- Kd [3]: 10 nM
- Kd [4]: 5 nM
- RU bound at the end of association (500 nM CD4) [4]: 23 RU

Substance: maraviroc
- antiviral effectiveness by tropism (CCR5-utilizing virus): only effective against solely CCR5-utilizing virus
